Ends that are not written are not given here.
B3: fluorescence-marked proline-rich peptide Cys-Ser-Gly-Pro-Pro-Pro-Pro-Pro-Pro-Pro-Pro-Leu-Pro (fluorescein-maleimide label) (peptide)
peptide: C(fluorescein‑maleimide)SGPPPPPPPPLP
notes: also called fluorescence-labeled peptide; fluorescence-marked peptide
B4: synthetic proline-rich peptide Cys-Ser-Gly-Pro-Pro-Pro-Pro-Pro-Pro-Pro-Pro-Leu-Pro (peptide)
peptide: CSGPPPPPPPPLP
notes: also called CSGP8LP; proline peptide

Assays:
[1] = target: B4; assay: affinity column with peptide, crude extract, wash with 2 M NaCl, elution with 2% SDS, SDS gel
[2] = target: B3; assay: incubation of labelled peptide with PyVP1-3C-WW[N-14], capsid assembly, gel filtration
[3] = target: T1, PyVP1-WW150 (mouse polyoma virus; Mus musculus …); assay: gel filtration (TSK gel G5000PWXL), co-elution of labelled peptide with capsids and pentamers, absorption at 490 nm
T1 construct: WW domain inserted between VP1 positions 148 and 149; Soluble pentamer after intein cleavage; also called PyVP1-WW150 variant; PyVP1-WW150 protein

[4] = target: T1, PyVP1-WW150; assay: SPR (Biacore X), peptide on CM5 chip, 10 mM HEPES, 1 mM EDTA, 150 mM NaCl, pH 7.2, 25 C, protein 5 to 50 nM
[5] = target: T1, PyVP1-WW150; assay: SPR (Biacore X), peptide on CM5 chip, Dulbecco's PBS
[6] = target: T1, PyVP1-WW150; assay: SPR (Biacore X), peptide on CM5 chip; summary of the three analyses of example 2
[7] = target: T2, PyVP1-WW150-D8C (mouse polyoma virus; Mus musculus …); assay: surface plasmon resonance; strengthened by 500 mM ammonium sulfate
T2 construct: Position 8 is counted on the WW domain itself

B1: [PyVP1-3C-WW1]-intein-CBD (other)
chain: MSGWTEHKSPDGRTYYYNTETKQSTWEKPDDGHMAPKRKSGVSKSETKSTKACPRPAPVPKLLIKGGMEVLDLVTGPDSVTEIEAFLNPRMGQPPTPESLTEGGQYYGWSRGINLATSDTEDSPGNNTLPTWSMAKLQLPMLNEDLTCDTLQMWEAVSVKTEVVGSGSLLDVHGFNKPTDTVNTKGISTPVEGSQYHVFAVGGEPLDLQGLVTDARTKYKEEGVVTIKTITKKDMVNKDQVLNPISKAKLDKDGMYPVEIWHPDPAKNENTRYFGNYTGGTCTPPVLQFTNTLTTVLLDENGVGPLSKGEGLYLSSVDIMGWRVTRNYDVHHWRGLPRYFKITLRKRWVKNPYPMASLISSLFNNMLPQVQGQPMEGENTQVEEVRVYDGTEPVPGDPDMTRYVDRFGKTKTVFPPG
notes: also called (PyVP1-3C-WW1)-intein-CBD fusion protein
binding result [1]: binds

B2: PyVP1-3C-WW[N-14] (other)
chain: MSGWTEHKSPDGRTYYYNTETKQSTWEKPDDGHMSTKACPRPAPVPKLLIKGGMEVLDLVTGPDSVTEIEAFLNPRMGQPPTPESLTEGGQYYGWSRGINLATSDTEDSPGNNTLPTWSMAKLQLPMLNEDLTCDTLQMWEAVSVKTEVVGSGSLLDVHGFNKPTDTVNTKGISTPVEGSQYHVFAVGGEPLDLQGLVTDARTKYKEEGVVTIKTITKKDMVNKDQVLNPISKAKLDKDGMYPVEIWHPDPAKNENTRYFGNYTGGTCTPPVLQFTNTLTTVLLDENGVGPLSKGEGLYLSSVDIMGWRVTRNYDVHHWRGLPRYFKITLRKRWVKNPYPMASLISSLFNNMLPQVQGQPMEGENTQVEEVRVYDGTEPVPGDPDMTRYVDRFGKTKTVFPPG
notes: The range 15-384 follows from 'N-terminus shortened by 14 amino acids'
binding result [2]: binds

B3
binding result [3]: binds

B4
Kd [4]: 5 nM
koff [5]: 0.0018 s⁻¹
kon [5]: 200000 M⁻¹ s⁻¹
Kd [6]: 20 nM
binding result [7]: binds

— US20060252130A1 (ACGT PREGENOMICS, published 2006)
